Several values for one entry are separate records, joined by “and”; a condition that tells them apart may be missing. Identical values can stand only once.

In series [1] the target is AccR (LysR-type transcriptional regulator, SO_0839) (Shewanella oneidensis, UniProt Q8EIK0). Put plainly: ITC in HEPES buffer (Kd […]); also MST ([…]); no binding seen by ITC in Tris buffer.
Series [2] deals with the molecule itself. Put plainly: SEC; His-tagged recombinant AccR purified from E. coli run on a Superdex 200HR 10/30 column (FPLC); two peaks with estimated molecular weights of ~67 and ~140 kDa.
Series [3] deals with the molecule itself. The series is described as follows: crystal structure; AccR EBD (residues 86-303), apo form, hanging-drop vapor diffusion, 27.5% PEG 4000, 100 mM HEPES pH 7.0, 20°C; space group C2, one dimer in the asymmetric unit.

As usually defined, the Kd is the free concentration of one partner at which half of the binding sites on the other are occupied at equilibrium, for simple one-to-one binding. Low values mean tighter binding, high ones weaker binding. In series [1], `CC(=O)SCCNC(=O)CCNC(=O)[C@H](O)C(C)(C)COP(=O)(O)OP(=O)(O)OC[C@H]1O[C@@H](n2cnc3c(N)ncnc32)[C@H](O)[C@@H]1OP(=O)(O)O` [acetyl-CoA] displayed an equilibrium dissociation constant (Kd) of 8.4 ± 1.3 µM.

B1: AccR (SO_0839), LysR-type transcriptional regulator, His6-tagged recombinant (natural protein, Shewanella oneidensis, UniProt Q8EIK0 1-303, looked up)
chain: MPDLNGMMLFAAVVRAKGFSQAARETGHPKSTISRKIAQLEEELGVRLLQRDTRNLSLTQVGALFYQHCDSIRNEVEAAKAVIESTHDDVSGSLRIAIPVSFSQELIANLCSGFMRLYPNVELDVQFTDNDIGLVGEGYDIAIKYGPLQSSDLVARLLFERQPILVASPGYLKTRGTPATPKELSDHSGILLGTSRSAPIWPLGKGTRKTMVSFQRKVRVNSPIMVKQLALDDFGIAMLSNSACKTELANGQLVPILQEWPMEPFKVYGVYSSRRQLATNISAFLDFFVKRFSSQESLQSLMG
notes: AccR (SO_0839), LTTR of 303 amino acids, Shewanella oneidensis; full-length; calculated molecular weight of the recombinant protein 35.6 kDa; The methods describe growth of the BL21(DE3) cells in M9 medium supplemented with selenomethionine; also called ACCase regulator; His-tagged AccR; source: E. coli BL21(DE3), pET-28a, purified (Ni-NTA, size-exclusion chromatography); not shown: His6, …
Broadly, the stoichiometry N is a count of units in the complex or per binding partner. Consider B1, for which, in series [2], the “stoichiometry N” value is 2 and 4.

B2: AccR effector-binding domain (EBD, residues 86-303) (domain or fragment, Shewanella oneidensis, UniProt Q8EIK0 86-303, looked up)
chain: THDDVSGSLRIAIPVSFSQELIANLCSGFMRLYPNVELDVQFTDNDIGLVGEGYDIAIKYGPLQSSDLVARLLFERQPILVASPGYLKTRGTPATPKELSDHSGILLGTSRSAPIWPLGKGTRKTMVSFQRKVRVNSPIMVKQLALDDFGIAMLSNSACKTELANGQLVPILQEWPMEPFKVYGVYSSRRQLATNISAFLDFFVKRFSSQESLQSLMG
notes: the model holds residues 89-302 (subunit A) and 90-300 (subunit B); The methods describe expression in M9 medium with selenomethionine, but also say that diffraction data were collected with native protein crystals; also called AccR EBD; regulatory domain; source: E. coli BL21(DE3), pET-28a, purified (Ni-NTA, size-exclusion chromatography)
With B2, in series [3], the binding result is “binds”.

The record behind these values is paper PMC11602165, “A bacterial transcription activator dedicated to the expression of the enzyme catalyzing the first committed step in fatty acid biosynthesis” (Nucleic Acids Research, 2024).
